Drawing on article PMC12767058, this text covers Kd for 1 substance.

pKd: −log10 of the molar value.

This experiment has as its target K-TM protein used for the affinity measurement with hFL (human). As to the kind of experiment: BLI; method not given; BLI is the only affinity method that the paper describes (Octet R8, SA chip, PBST); who was immobilised is not said.

“hFL lectin (mannose-binding lectin, human recombinant protein)” showed a pKd of 7.31.

The pKd is the negative decadic logarithm of the Kd, by convention in mol/L.
